Data on 3 molecules can be found in paper PMC5824887, “A family of unconventional deubiquitinases with modular chain specificity determinants” (Nature Communications, 2018).

For experiment [1], the target named is T1, propargylated ubiquitin (Ub-PA) (UniProt P0CG48 1-75, propargylamine coupled to the C-terminus of ubiquitin 1-75). The experiment can be described thus: crystal structure; covalent complex of ZUFSP^232-578 and Ub-PA (100 µM + 200 µM, 18 h, 4 °C, SEC); crystals from 0.2 M sodium malonate pH 5, 20% PEG 3350, 4 °C. The settings on record: both partners purified.

For experiment [2], the target named is T1, propargylated ubiquitin (Ub-PA). The experiment can be described thus: suicide probe reaction (covalent adduct, SDS-PAGE, Coomassie); DUB prediluted to 10 µM, combined 1:1 with 100 µM probe in 20 mM TRIS pH 7, 150 mM NaCl, 10 mM DTT; 16 h at 4 °C; shifted band on Coomassie-stained gel. As to conditions: both partners purified.

B1: ZUFSP^232-578 (domain or fragment, human, UniProt Q96AP4 232-578, looked up)
chain: GDLQLAHQLQQEEDRKRRSEESRQEIEEFQKLQRQYGLDNSGGYKQQQLRNMEIEVNRGRMPPSEFHRRKADMMESLALGFDDGKTKTSGIIEALHRYYQNAATDVRRVWLSSVVDHFHSSLGDKGWGCGYRNFQMLLSSLLQNDAYNDCLKGMLIPCIPKIQSMIEDAWKEGFDPQGASQLNNRLQGTKAWIGACEVYILLTSLRVKCHIVDFHKSTGPLGTHPRLFEWILNYYSSEGEGSPKVVCTSKPPIYLQHQGHSRTVIGIEEKKNRTLCLLILDPGCPSREMQKLLKQDIEASSLKQLRKSMGNLKHKQYQILAVEGALSLEEKLARRQASQVFTAEKIP
notes: In the crystal the catalytic Cys-360 is covalently coupled to Ub-PA; also called the construct used for crystallization; source: E. coli Rosetta (DE3)pLysS, purified (HisTrap, tag removal with Senp1, SEC); not shown: His6, N-terminal, cleaved; Smt3, N-terminal, cleaved
B1: in experiment [1], the binding result is on record as “binds”.

B2: human ZUFSP, full length, bacterially expressed (enzyme, UniProt Q96AP4 1-578, looked up)
chain: MLSCNICGETVTSEPDMKAHLIVHMESEIICPFCKLSGVNYDEMCFHIETAHFEQNTLERNFERINTVQYGTSDNKKDNTLQCGMEVNSSILSGCASNHPKNSAQNLTKDSTLKHEGFYSENLTESRKFLKSREKQSSLTEIKGSVYETTYSPPECPFCGKIEEHSEDMETHVKTKHANLLDIPLEDCDQPLYDCPMCGLICTNYHILQEHVDLHLEENSFQQGMDRVQCSGDLQLAHQLQQEEDRKRRSEESRQEIEEFQKLQRQYGLDNSGGYKQQQLRNMEIEVNRGRMPPSEFHRRKADMMESLALGFDDGKTKTSGIIEALHRYYQNAATDVRRVWLSSVVDHFHSSLGDKGWGCGYRNFQMLLSSLLQNDAYNDCLKGMLIPCIPKIQSMIEDAWKEGFDPQGASQLNNRLQGTKAWIGACEVYILLTSLRVKCHIVDFHKSTGPLGTHPRLFEWILNYYSSEGEGSPKVVCTSKPPIYLQHQGHSRTVIGIEEKKNRTLCLLILDPGCPSREMQKLLKQDIEASSLKQLRKSMGNLKHKQYQILAVEGALSLEEKLARRQASQVFTAEKIP
notes: Zn-finger and UFSP domain protein (ZUFSP), human, cloned from HEK293 cDNA; also called ZUP1; C6orf113; source: E. coli Rosetta (DE3)pLysS, purified (HisTrap, tag removal with Senp1, SEC); not shown: His6, N-terminal, cleaved; Smt3, N-terminal, cleaved
On to B2, for which the binding result in experiment [2] is “binds”.

B3: Mug105 from the fission yeast Schizosaccharomyces pombe (enzyme, S. pombe, UniProt O13979 1-244, looked up)
chain: MSKCLQQLKRQLQHFGIDGCSLADGDIDYFFTVTGIDRGWGCGWRNIQMLISWLQYTNPNWFKRNFSSGNYEINSLQSLLLSAWMKGIDAEGYAQLGDNLHGKWIGATEVYSLFTGLFVNVALVDFDFRSEASASNALFLYVKKHFESSNDTSNVSPCYLQFQGHSIIIIGFCSSLETLVVLDPDRYQSVQKKFVNIADFNHCYMRKKRSLKFSQFQLVHFKQNIFLNDFSSKLEVRSTRISDF
notes: Mug105, S. pombe, cloned from genomic DNA; consists only of the core catalytic domain; source: E. coli Rosetta (DE3)pLysS, purified (HisTrap, tag removal with Senp1, SEC); not shown: His6, N-terminal, cleaved; Smt3, N-terminal, cleaved
For the molecule B3, in experiment [2], the binding result is listed as “binds”.
